± gives the standard deviation of the averaged measurements.
Tested on: Saccharomyces cerevisiae
Test: protein stability index of tFT-peptide fusion (C-terminal peptide) (PSI (0-1 scale)); higher = more stable (slower turnover)
Conditions: temperature: 30 C
Procedure: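 MPS profiling in S. cerevisiae of the yeast C-terminome library: the last 12 aa of each annotated ORF are fused to the C-terminus of a sfGFP-mCherry timer, after a GGGS linker. Cells are FACS-sorted into 8 mCherry/sfGFP bins and deep-sequenced. PSI runs from 0 (unstable) to 1 (stable); wild type and das1Δ backgrounds, two technical replicates each.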

[1] = genetic background: das1 deletion

Question: Which protein stability index [1] does the source give for WKKDNKIQVVKN [GIM4 C-terminal 12 aa] here?
Answer: 0.725 ± 0.026

Question: And the protein stability index (genetic background: wild type)?
Answer: 0.663 ± 0.019

Question: With VGADSYAEEEEF [TUB1 C-terminal 12 aa] as the sequence, how does the protein stability index [1] read?
Answer: 0.687 ± 0.032

Question: What about the protein stability index (genetic background: wild type) of the same sequence?
Answer: 0.676 ± 0.032

Question: Which results are given for ESIEELLRKTLE [ZNG1 C-terminal 12 aa]?
Answer: protein stability index [1]: 0.687 ± 0.02; protein stability index (genetic background: wild type): 0.735 ± 0.067

Question: What does the source list for RSNEEMYSWSRN [SPO74 C-terminal 12 aa]?
Answer: protein stability index [1]: 0.698 ± 0.039; protein stability index (genetic background: wild type): 0.692 ± 0.0082

Question: FCISFPCFGLSI [AIM26 C-terminal 12 aa] was tested. Which protein stability index [1] did it give?
Answer: 0.679 ± 0.037

Question: What about the protein stability index (genetic background: wild type) of the same sequence?
Answer: 0.704 ± 0.003

Question: KFETPGEYKKRI [LCL3 C-terminal 12 aa] was tested. Which protein stability index [1] did it give?
Answer: 0.697 ± 0.029

Question: What about the protein stability index (genetic background: wild type) of the same sequence?
Answer: 0.712 ± 0.019

Question: Which results are given for HSDSADTHTHKH [MMT2 C-terminal 12 aa]?
Answer: protein stability index [1]: 0.693 ± 0.025; protein stability index (genetic background: wild type): 0.696 ± 0.029

Question: Which protein stability index [1] does the source give for MDPMSPLNKDVS [YMR196W C-terminal 12 aa] here?
Answer: 0.692 ± 0.0081

Question: What about the protein stability index (genetic background: wild type) of the same sequence?
Answer: 0.73 ± 0.05

Question: What does the source list for ELPGVAFLSEKK [PGK1 C-terminal 12 aa]?
Answer: protein stability index [1]: 0.728 ± 0.016; protein stability index (genetic background: wild type): 0.67 ± 0.0094

Question: What does the source list for KGVVTLEEILKA [COQ11 C-terminal 12 aa]?
Answer: protein stability index [1]: 0.712 ± 0.012; protein stability index (genetic background: wild type): 0.712 ± 0.028

Question: How did the protein stability index [1] turn out when GRPEQAPECKQS [NAP1 C-terminal 12 aa] was run?
Answer: 0.688 ± 0.0078

Question: What about the protein stability index (genetic background: wild type) of the same sequence?
Answer: 0.648 ± 0.011

Question: Which protein stability index [1] does the source give for CLREFMNGQRYI [DIA4 C-terminal 12 aa] here?
Answer: 0.7021 ± 0.0027

Question: What about the protein stability index (genetic background: wild type) of the same sequence?
Answer: 0.68 ± 0.034

Question: Which results are given for RLNKLEAVLQTL [PML39 C-terminal 12 aa]?
Answer: protein stability index [1]: 0.685 ± 0.033; protein stability index (genetic background: wild type): 0.72 ± 0.011

Question: Which protein stability index [1] does the source give for IRSRGRLKEVYF [SLX5 C-terminal 12 aa] here?
Answer: 0.732 ± 0.026

Question: And the protein stability index (genetic background: wild type)?
Answer: 0.68566 ± 0.00055

Question: For HAAEQILKHFAA [THI4 C-terminal 12 aa], which protein stability index [1] is on record?
Answer: 0.697 ± 0.013

Question: What about the protein stability index (genetic background: wild type) of the same sequence?
Answer: 0.708 ± 0.015

Question: Which results are given for KAVEFTTTALSS [MKT1 C-terminal 12 aa]?
Answer: protein stability index [1]: 0.715 ± 0.0089; protein stability index (genetic background: wild type): 0.747 ± 0.11

Question: Which results are given for MMTRENMDMGER [RRP3 C-terminal 12 aa]?
Answer: protein stability index [1]: 0.669 ± 0.044; protein stability index (genetic background: wild type): 0.649 ± 0.027

Question: Which protein stability index [1] does the source give for SILRIDDIAFSR [CCT4 C-terminal 12 aa] here?
Answer: 0.739 ± 0.033

Question: And the protein stability index (genetic background: wild type)?
Answer: 0.71 ± 0.034

Question: How did the protein stability index [1] turn out when VGDIVWKIRNIN [TTI1 C-terminal 12 aa] was run?
Answer: 0.689 ± 0.026

Question: What about the protein stability index (genetic background: wild type) of the same sequence?
Answer: 0.1985 ± 0.0019

Question: Which protein stability index [1] does the source give for LIHASSVEQATA [MRPL4 C-terminal 12 aa] here?
Answer: 0.68 ± 0.016

Question: And the protein stability index (genetic background: wild type)?
Answer: 0.6986 ± 0.0057

Question: Which results are given for IKMIKELGNHRL [RMD6 C-terminal 12 aa]?
Answer: protein stability index [1]: 0.684 ± 0.0078; protein stability index (genetic background: wild type): 0.646 ± 0.026

Question: Which protein stability index [1] does the source give for IHDFPKSHIVDF [IKI3 C-terminal 12 aa] here?
Answer: 0.7325 ± 0.0027

Question: And the protein stability index (genetic background: wild type)?
Answer: 0.733 ± 0.025

Question: Which protein stability index [1] does the source give for NAIEEELAKMKL [THR4 C-terminal 12 aa] here?
Answer: 0.6922 ± 0.0025

Question: And the protein stability index (genetic background: wild type)?
Answer: 0.692 ± 0.035

Question: With TLIDYFIENDGL [LYS5 C-terminal 12 aa] as the sequence, how does the protein stability index [1] read?
Answer: 0.7227 ± 0.0034

Question: And the protein stability index (genetic background: wild type)?
Answer: 0.761 ± 0.092

Question: For WPRVASNSGVVV [RPL23A C-terminal 12 aa], which protein stability index [1] is on record?
Answer: 0.7042 ± 0.0044

Question: And the protein stability index (genetic background: wild type)?
Answer: 0.679 ± 0.018

Question: For LVFALLTCFEDG [YDR209C C-terminal 12 aa], which protein stability index [1] is on record?
Answer: 0.481 ± 0.0089

Question: And the protein stability index (genetic background: wild type)?
Answer: 0.505 ± 0.014

Question: STSSLKRQRTDF [REX2 C-terminal 12 aa] was tested. Which protein stability index [1] did it give?
Answer: 0.718 ± 0.011

Question: What about the protein stability index (genetic background: wild type) of the same sequence?
Answer: 0.712 ± 0.017

Question: Which protein stability index [1] does the source give for ATYLNKSDNQVQ [YLR446W C-terminal 12 aa] here?
Answer: 0.675 ± 0.052

Question: And the protein stability index (genetic background: wild type)?
Answer: 0.656 ± 0.024

Question: With RVYTEQNVPVVS [YNL194C C-terminal 12 aa] as the sequence, how does the protein stability index [1] read?
Answer: 0.6679 ± 0.0046

Question: And the protein stability index (genetic background: wild type)?
Answer: 0.684 ± 0.039

Question: What does the source list for FMGGFLSKGNKR [ROG3 C-terminal 12 aa]?
Answer: protein stability index [1]: 0.706 ± 0.012; protein stability index (genetic background: wild type): 0.683 ± 0.029

Question: What does the source list for ETPSQTSQEATQ [ERG6 C-terminal 12 aa]?
Answer: protein stability index [1]: 0.731 ± 0.0089; protein stability index (genetic background: wild type): 0.722 ± 0.015

Question: “PLCYWHYSADTY [YIL105W-A C-terminal 12 aa]” was tested. Which protein stability index [1] did it give?
Answer: 0.7217 ± 0.0058

Question: What about the protein stability index (genetic background: wild type) of the same sequence?
Answer: 0.808 ± 0.039

Question: With LIWLTIIYQALT [IRC18 C-terminal 12 aa] as the sequence, how does the protein stability index [1] read?
Answer: 0.249 ± 0.015

Question: And the protein stability index (genetic background: wild type)?
Answer: 0.269 ± 0.0048

Question: For YHLFYMKLQKKI [SPE2 C-terminal 12 aa], which protein stability index [1] is on record?
Answer: 0.6977 ± 0.0069

Question: And the protein stability index (genetic background: wild type)?
Answer: 0.187 ± 0.013

Reference: the supplement of paper PMC10724198
